B1: RSPH3 (parent)
chain: VDVQTELYLEEIADRIIEVDMECQ
B2: ZBTB22 (parent)
chain: HTGLKPYECGVCAKKFMWRDSFMR

Variants of: B1
Test: protein stability index of a GFP-peptide fusion (GPS, HEK-293T) (PSI 1-6); higher = more stable
Conditions: c terminus: a fixed tail appended
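Further: lentivirally expressed fusions sorted by FACS into six bins by GFP to DsRed ratio, PSI derived from sequencing read proportions per bin multiplied by bin number.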

Protein stability index of substitutions, site by site:
V3: Y 1.85 | Q 3.04 | T 2.92
D2: I 2.61 | G 1.81 | Q 1.72 | K 1.91 | P 3.08
Q4: C 2.29 | K 2.43 | W 2.27 | T 2.47 | V 3.19 | L 1.97
T5: N 3.23 | H 2.42 | C 1.75 | F 2.96
E6: F 1.64
D20: R 1.15 | P 3.46 | T 3.29 | A 2.54
E10: H 2 | W 3.73 | F 2.25 | S 2.39
V1: G 2.86 | R 2.57 | S 3.88 | C 2.36 | M 2.39 | K 2.79 | T 3.75 | P 3.11
A13: I 2.22 | Q 3.05 | G 2.95 | N 3.2 | E 2.87
I16: M 2.36 | Y 2.57 | W 2.97 | T 4.19 | F 1.87
E18: F 2.26 | K 2.59 | T 2.23 | D 3.12 | A 2.22 | Y 2.03
I12: F 1.61 | Y 2.96 | R 4.25
L9: F 2.21 | T 4.38 | S 4.92 | N 5.14 | I 2.33 | P 4.5 | K 4.65 | V 2.91
E22: L 2.53 | V 1.57 | T 2.17
L7: D 2.71 | S 3.06 | V 1.45 | A 3.2 | F 1.79 | E 4.3 | K 3.96
V19: Q 3.76 | D 5.01 | P 4.3 | R 4.23 | G 4.16 | T 3.95 | K 4.5 | Y 2.58 | A 3.81
D14: A 1.94 | P 2.45
R15: Q 3.58 | G 3.14 | E 3.55
Y8: R 3.11 | I 1.71 | D 4.25 | H 3.85 | G 4.65
C23: M 2.34 | E 4.22 | V 5.09 | S 3.85
E11: F 1.89 | R 2.22 | M 3.38 | N 3.26
I17: R 3.33 | H 2.94 | A 2.41 | Q 3.47 | T 3.6 | K 3.65 | M 1.87
Q24: H 2.52
M21: A 3.23 | V 1.99 | K 2.27

Variants of: B2
Test: as above
Conditions: c terminus: a fixed tail appended

Protein stability index, by site and new letter:
R24: C 2.94 | N 3.03 | V 2.82 | M 3.19 | T 3.9 | K 1.71 | D 1.37 | G 1.87 | H 3.35 | F 2.3 | Q 1.6 | I 1.79 | S 2.96 | W 1.67 | L 3.44
F22: D 3.47 | K 2.54 | S 1.66 | T 1.74 | E 3.96 | A 1.79 | H 1.45 | Y 1.89 | N 1.49 | Q 3.48 | L 2.46 | C 2.21 | P 2.07 | W 1.53 | R 1.56
M23: Y 2.82 | H 2.79 | R 2.64 | F 2.41 | L 1.85 | P 2.28 | S 2.46 | N 2.22 | A 3.12 | W 2.22 | G 1.69 | K 1.92 | E 4.04 | T 2.71 | V 1.96 | I 1.88 | Q 3.15
R19: M 2.01 | D 1.88 | F 1.55 | Q 2.03 | I 1.71 | H 2.12 | L 2.82 | C 1.59 | A 2.81 | P 4.1 | K 2.88 | N 2.29 | T 2.13 | W 1.77 | S 2.12 | Y 2.06 | E 1.58
S21: F 1.98 | H 2.26 | Q 1.83 | T 1.73 | N 1.49 | Y 2.58 | E 1.78 | G 2.9 | W 2.84 | R 1.08 | V 2.1 | A 2.23 | P 3.07 | L 3.24 | I 2.32
W18: E 2.75 | Y 3 | M 1.78 | C 1.85 | V 2.43 | S 1.52 | L 3.88 | P 2.88 | A 1.06 | D 2.09 | T 1.68 | R 2.05 | K 1.75 | N 1.61 | H 2.81 | I 1.57
F16: Y 3.36 | N 1.39 | C 2.57 | V 1.95 | R 2.1 | M 2.46 | S 3.33 | K 1.32 | Q 2.16 | I 1.6 | E 1.31 | H 1.6 | A 1.1 | P 3 | D 2.45
K15: G 2.95 | M 2.88 | H 3.5 | N 2.26 | T 1.61 | W 1.79 | V 1.77 | R 2.86 | Q 2.05 | S 2.12 | D 2.52 | L 1.52 | Y 2.76 | C 2.1 | I 1.77 | F 2
D20: C 3.48 | H 2.65 | I 2.1 | A 2.16 | P 1.72 | N 2.48 | Q 1.74 | F 2.08 | L 2.27 | Y 2.74 | V 1.69 | K 3.45 | S 2.08 | G 3.52
M17: T 3.13 | K 1.27 | P 2.35 | C 2.27 | A 2.39 | Q 1.64 | F 3.05 | Y 1.53 | L 2.18 | S 1.9 | D 1.84 | R 1.39 | I 2.8 | W 2.45
A13: K 1.22 | I 2.5 | L 2.64 | W 3.78 | M 3.7 | D 1 | Q 1.55 | E 1.56 | H 2.56 | G 1.54 | F 3.02
C12: P 1.73 | Y 2.91 | D 1.12 | W 3.06 | T 2.56 | A 1.62 | G 3.24 | S 2.56 | K 2.58 | N 2.56 | I 3.24 | E 3.07
G10: D 1.98 | H 1.96 | A 2.82 | F 2.12 | R 2.01 | P 1.92 | L 2.17 | Y 3.51 | N 2.62 | K 2.19 | V 4.2 | T 1.84 | E 2.44 | M 1.64 | Q 2.19 | C 2.58 | S 1.47
V11: R 1.75 | Q 1.8 | E 2.09 | D 3.26 | G 1.25 | I 3.5 | L 1.85 | F 2.4 | K 2.98 | N 1.37 | Y 2.59 | T 1.83 | H 2.37 | P 3.87
C9: V 2.02 | S 1.42 | T 1.78 | W 2.35
K14: Y 3.07 | F 1.99 | I 1.66 | T 2.19 | D 1.91 | Q 2.53 | P 1.21 | A 1.26 | E 1.9 | L 1.82 | W 2.78 | C 2.55

From the supplement of paper PMC10567573
